Values quoted from earlier work in patent publication US6204360A, “Retro-inverso thymosin alpha 1 hybrids” (USA Universe Bioengineering, Inc., priority 1999, dated 2001).
No end group written: not given here.

Conditions: Rost, Int. J. Clin. Pharmacol. Ther. 37:51, 1999

For “thymosin alpha 1 (SDAAVDTSSEITTKDLKEKKEVVEEAEN; ends and bridges not checked; UniProt P06454 2-29, looked up) [TM-alpha1, 28 amino acid acidic peptide purified from thymosin fraction V; immunomodulator]”, the half-life in vivo is given as “short half-life in vivo”.
